Laboratory results as given in US20100120634A1 (Pfizer, published 2010).

Legend:
[1] = target: biotin labeled hRAGE-Fc (human) (UniProt Q15109); assay: HTRF competition; scFv against Eu-cryptate XT-M4 for biotin-hRAGE-Fc
biotin labeled hRAGE-Fc = target: T1, biotin labeled hRAGE-Fc (human, UniProt Q15109 24-344, biotin-labeled (site not stated)); assay: as above
T1 construct: used biotinylated in HTRF and coated in ELISA; also called Biotin-labeled RAGE-Fc; biotinylated-RAGE-Fc; not shown: Fc part not described
T1 sequence (Q15109 24-344): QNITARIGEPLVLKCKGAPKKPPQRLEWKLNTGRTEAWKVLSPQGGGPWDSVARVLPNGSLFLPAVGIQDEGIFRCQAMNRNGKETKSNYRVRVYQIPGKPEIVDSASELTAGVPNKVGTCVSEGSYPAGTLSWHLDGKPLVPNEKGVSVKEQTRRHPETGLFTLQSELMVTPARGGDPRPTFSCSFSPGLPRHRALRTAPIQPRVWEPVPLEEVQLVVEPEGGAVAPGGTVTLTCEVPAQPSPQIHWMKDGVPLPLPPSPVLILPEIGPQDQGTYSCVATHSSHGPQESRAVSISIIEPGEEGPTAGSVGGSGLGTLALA

biotin labeled hRAGE-Fc (human), sequence (Q15109 24-344): as above

| IC50 [1] [nM] | IC50 (biotin labeled hRAGE-Fc) [nM] | Binder |
| --- | --- | --- |
| 9.03 | – | 6C11 scFv (scFv, from a related filing, part only) scFv: DIQMTQSPSSLSASVGDRVTITCRASQDVGIYVNWFQQKPGKAPRRLIYRATNLADGVPSRFSGSRSGTDFTLTISSLQPEDFATYYCLQYDAHPLTFGGGTKVEIKDGGGSGGGGSGGGGSSEVQLVESGGGLVQPGGSLRLSCAASGFTFNNYWMTWVRQAPGKGLEWVASIDNSGDNTYYPDSVKDRFTISRDNAKNSLYLQMNSLRAEDTAVYYCARGGDITTGFDYWGQGTLVTVSS |
| – | 1.52 | 6C3 scFv (scFv) DIQMTQSPSSLSASVGDRVTITCRASQDVGIYVNWFQQKPGKAPRRLIYRATNLADGVPSRFSGSRSGTDFTLTISSLQPEDFATYYCLEFDEHPLTFGGGTKVEIKDGGGSGGGGSGGGGSSEVQLVESGGGLVQPGGSLRLSCAASGFTFNNYWMTWVRQAPGKGLEWVASIDNSGDNTYYPDSVKDRFTISRDNAKNSLYLQMNSLRAEDTAVYYCARGGDITLGLDVWGQGTLVTVSS |
| – | 1.74 | 6E3 scFv (scFv) DIQMTQSPSSLSASVGDRVTITCRASQDVGIYVNWFQQKPGKAPRRLIYRATNLADGVPSRFSGSRSGTDFTLTISSLQPEDFATYYCLEFDEHPLTFGGGTKVEIKDGGGSGGGGSGGGGSSEVQLVESGGGLVQPGGSLRLSCAASGFTFNNYWMTWVRQAPGKGLEWVASIDNSGDNTYYPDSVKDRFTISRDNAKNSLYLQMNSLRAEDTAVYYCARGGDIRVSLDFWGQGTLVTVSS |
| – | 1.45 | 6D5 scFv (scFv) DIQMTQSPSSLSASVGDRVTITCRASQDVGIYVNWFQQKPGKAPRRLIYRATNLADGVPSRFSGSRSGTDFTLTISSLQPEDFATYYCLEFDEHPLTFGGGTKVEIKDGGGSGGGGSGGGGSSEVQLVESGGGLVQPGGSLRLSCAASGFTFNNYWMTWVRQAPGKGLEWVASIDNSGDNTYYPDSVKDRFTISRDNAKNSLYLQMNSLRAEDTAVYYCARGGDIKVSLDQWGQGTLVTVSS |

More lines, now with the values behind:

| Binder | IC50 [1] [nM] | IC50 (biotin labeled hRAGE-Fc) [nM] |
| --- | --- | --- |
| 6A12 scFv (scFv, from a related filing, part only) scFv: DIQMTQSPSSLSASVGDRVTITCRASQDVGIYVNWFQQKPGKAPRRLIYRATNLADGVPSRFSGSRSGTDFTLTISSLQPEDFATYYCLQYDAHPLTFGGGTKVEIKDGGGSGGGGSGGGGSSEVQLVESGGGLVQPGGSLRLSCAASGFTFNNYWMTWVRQAPGKGLEWVASIDNSGDNTYYPDSVKDRFTISRDNAKNSLYLQMNSLRAEDTAVYYCARGGDITTGFDYWGQGTLVTVSS | 8.27 | – |
| 6C1 scFv (scFv) DIQMTQSPSSLSASVGDRVTITCRASQDVGIYVNWFQQKPGKAPRRLIYRATNLADGVPSRFSGSRSGTDFTLTISSLQPEDFATYYCLELDEHPLTFGGGTKVEIKDGGGSGGGGSGGGGSSEVQLVESGGGLVQPGGSLRLSCAASGFTFNNYWMTWVRQAPGKGLEWVASIDNSGDNTYYPDSVKDRFTISRDNAKNSLYLQMNSLRAEDTAVYYCARGGDIKVGLDNWGQGTLVTVSS | – | 4.44 |
| 3B4 scFv (scFv) DIQMTQSPSSLSASVGDRVTITCRASQDVGIYVNWFQQKPGKAPRRLIYRATNLADGVPSRFSGSRSGTDFTLTISSLQPEDFATYYCLEFDEHPLTFGGGTKVEIKDGGGSGGGGSGGGGSSEVQLVESGGGLVQPGGSLRLSCAASGFTFNNYWMTWVRQAPGKGLEWVASIDNSGDNTYYPDSVKDRFTISRDNAKNSLYLQMNSLRAEDTAVYYCARGGDIREGLRYWGQGTLVTVSS | – | 1.3 |
| 3D5 scFv (scFv) DIQMTQSPSSLSASVGDRVTITCRASQDVGIYVNWFQQKPGKAPRRLIYRATNLADGVPSRFSGSRSGTDFTLTISSLQPEDFATYYCLEFDEHPLTFGGGTKVEIKDGGGSGGGGSGGGGSSEVQLVESGGGLVQPGGSLRLSCAASGFTFNNYWMTWVRQAPGKGLEWVASIDNSGDNTYYPDSVKDRFTISRDNAKNSLYLQMNSLRAEDTAVYYCARGGDIKVGLDLWGQGTLVTVSS | – | 2.99 |
| 6B6 scFv (scFv) DIQMTQSPSSLSASVGDRVTITCRASQDVGIYVNWFQQKPGKAPRRLIYRATNLADGVPSRFSGSRSGTDFTLTISSLQPEDFATYYCLEFDEHPLTFGGGTKVEIKDGGGSGGGGSGGGGSSEVQLVESGGGLVQPGGSLRLSCAASGFTFNNYWMTWVRQAPGKGLEWVASIDNSGDNTYYPDSVKDRFTISRDNAKNSLYLQMNSLRAEDTAVYYCARGGDIIISLDWWGQGTLVTVSS | – | 0.64 |
| 3C6 scFv (scFv) DIQMTQSPSSLSASVGDRVTITCRASQDVGIYVNWFQQKPGKAPRRLIYRATNLADGVPSRFSGSRSGTDFTLTISSLQPEDFATYYCLEFDEHPLTFGGGTKVEIKDGGGSGGGGSGGGGSSEVQLVESGGGLVQPGGSLRLSCAASGFTFNNYWMTWVRQAPGKGLEWVASIDNSGDNTYYPDSVKDRFTISRDNAKNSLYLQMNSLRAEDTAVYYCARGGDIVVGLDHWGQGTLVTVSS | – | 1.25 |
| 3B7 scFv (scFv, from a related filing, part only) scFv: DIQMTQSPSSLSASVGDRVTITCRASQDVGIYVNWFQQKPGKAPRRLIYRATNLADGVPSRFSGSRSGTDFTLTISSLQPEDFATYYCLQFDSHPLTFGGGTKVEIKDGGGSGGGGSGGGGSSEVQLVESGGGLVQPGGSLRLSCAASGFTFNNYWMTWVRQAPGKGLEWVASIDNSGDNTYYPDSVKDRFTISRDNAKNSLYLQMNSLRAEDTAVYYCARGGDITTGFDYWGQGTLVTVSS | 7.35 | – |
| 3B2 scFv (scFv) DIQMTQSPSSLSASVGDRVTITCRASQDVGIYVNWFQQKPGKAPRRLIYRATNLADGVPSRFSGSRSGTDFTLTISSLQPEDFATYYCLEFDEHPLTFGGGTKVEIKDGGGSGGGGSGGGGSSEVQLVESGGGLVQPGGSLRLSCAASGFTFNNYWMTWVRQAPGKGLEWVASIDNSGDNTYYPDSVKDRFTISRDNAKNSLYLQMNSLRAEDTAVYYCARGGDILVGLDYWGQGTLVTVSS | – | 0.91 |
| 3G8 scFv (scFv, from a related filing, part only) scFv: DIQMTQSPSSLSASVGDRVTITCRASQDVGIYVNWFQQKPGKAPRRLIYRATNLADGVPSRFSGSRSGTDFTLTISSLQPEDFATYYCLQYDAHPLTFGGGTKVEIKDGGGSGGGGSGGGGSSEVQLVESGGGLVQPGGSLRLSCAASGFTFNNYWMTWVRQAPGKGLEWVASIDNSGDNTYYPDSVKDRFTISRDNAKNSLYLQMNSLRAEDTAVYYCARGGDITTGFDYWGQGTLVTVSS | 8.08 | – |
